Laboratory results published in patent publication US20190315845A1 (ANNEXON, published 2019).
Read-outs that look alike come from different tables or passages of the source. One block for each binder: values may come before it.

Columns and labels:
human C1q [1] = target: T1, human C1q (human, UniProt P02745 23-245; P02746 28-253; P02747 29-245); assay: competition ELISA on plate-bound human C1q against biotinylated mouse M1 antibody (0.02 µg/ml); bound biotin-M1 read as OD450
T1 construct: Purified human C1q protein (plate-coated in ELISA, ligand or analyte in SPR, in human serum in CH50); also called hC1q; complement factor C1q
Description: (§1) FIG. 4A, FIG. 4B, FIG. 4C, and FIG. 4D depicts competition ELISA assays for human C1q. A dilution series of purified humanized anti-C1q antibodies were competed against a fixed concentration of biotinylated monoclonal antibody M1 for binding to human C1q. Bound biotinylated M1 antibody was detected using streptavidin-peroxidase conjugate and TMB substrate. FIG. 4A depicts the results with the humanized antibodies VH1/Vκ1, VH1/Vκ2, and VH1/Vκ3. FIG. 4B depicts the results with the humanized antibodies VH1/Vκ4, VH2/Vκ1, VH2/Vκ2, VH2/Vκ3, and VH2/Vκ4. FIG. 4C depicts the results with the humanized antibodies VH3/Vκ1, VH3/Vκ2, VH3/Vκ3, and VH3/Vκ4. FIG. 4D depicts the results with the humanized antibodies VH4/Vκ1, VH4/Vκ2, […], and VH4/Vκ4.
(§2) The binding of humanized M1 variants to human C1q was analyzed by competition ELISA. A three-fold dilution series of test antibody (5 μg/ml to 0.002 μg/ml) was premixed with a constant concentration of biotinylated mouse M1 antibody (0.02 μg/ml, final concentration) before incubating for 1 hour at 37° C. with shaking on plates pre-coated with human C1q at 1.0 μg/ml. The binding of mouse M1 antibody was detected with streptavidin-peroxidase conjugate (Sigma-Aldrich cat. no. 55512) and TMB (3,3′,5,5′-tetramethylbenzidine) substrate (Thermo Scientific cat. no. 34029). The reaction was stopped with 1M HCl, absorbance read at 450 nm on a Dynex Technologies MRX TC II plate reader and the binding curves plotted.

human C1q [2] = target: T1, human C1q; assay: as above; remark: listed apart in the source
Description: as §1, §2

human C1q [3] = target: T1, human C1q; assay: competition ELISA, plate-coated human C1q; competitor biotinylated mouse M1 (0.02 µg/ml); IC50 normalised to chimeric M1 (reference itself)
Protocol: as §2
(§3) The binding curves were used to calculate IC₅₀ values (concentration of test antibody that inhibits labelled competitor binding by 50%) for each antibody normalized to the IC₅₀ of chimeric M1 and antibody yields from NS0 transfectants were also compared (Table 1).

mouse C1q [4] = target: T2, mouse C1q (mouse, UniProt P98086 23-245; P14106 26-253; Q02105 30-246); assay: competition ELISA on plate-bound mouse C1q against biotinylated chimeric M1 antibody (0.03 µg/ml); bound biotin-chimeric M1 read as OD450
T2 construct: Purified mouse C1q protein; also called mC1q
Protocol: (§4) The binding of humanized M1 variants to mouse C1q was analyzed by competition ELISA on four selected antibodies, VH1/Vκ1, VH3/Vκ1, VH3/Vκ4 and VH4/Vκ3. An irrelevant IgG4 (S241P L248E) antibody was also included as a binding control. A three-fold dilution series of test antibody (100 μg/ml to 0.046 μg/ml) was premixed with a constant concentration of biotinylated chimeric M1 antibody (0.03 μg/ml, final concentration) before incubating for 1 hour at 37° C. with shaking on plates pre-coated with mouse C1q at 5.0 μg/ml. The binding of chimeric M1 antibody was detected with streptavidin-peroxidase conjugate (Sigma-Aldrich cat. no. S5512) and TMB substrate (Thermo Scientific cat. no. 34029). The reaction was stopped with 1M HCl, absorbance read at 450 nm on a Dynex Technologies MRX TC II plate reader and the binding curves plotted.
(§5) The binding curves were used to calculate IC₅₀ values for each antibody normalized to the IC₅₀ of chimeric M1 (Table 2).

human C1q [5] = target: T1, human C1q; assay: competition ELISA on plate-bound human C1q against biotinylated mouse M1 antibody (0.02 µg/ml); bound biotin-M1 read as OD450; remark: listed apart in the source
Description: as §1, §2

human C1q [6] = target: T1, human C1q; assay: as above; remark: listed apart in the source
Description: as §1, §2

mouse C1q [7] = target: T2, mouse C1q; assay: competition ELISA, plate-coated mouse C1q; competitor biotinylated chimeric M1 (0.03 µg/ml); IC50 normalised to chimeric M1 (reference itself)
Protocol: as §4, §5

human C1q [8] = target: T1, human C1q; assay: SPR Biacore T200, heterogeneous ligand model, ka2; hC1q immobilised (ligand), IgG analyte
mouse C1q [9] = target: T2, mouse C1q; assay: competition ELISA, plate-coated mouse C1q; competitor biotinylated chimeric M1 (0.03 µg/ml); IC50 normalised to chimeric M1
Protocol: as §4, §5

human C1q [10] = target: T1, human C1q; assay: SPR Biacore T200, heterogeneous ligand model, KD2; hC1q immobilised (ligand), IgG analyte
human C1q [11] = target: T1, human C1q; assay: SPR Biacore T200, 1:1 model; IgG immobilised (ligand), hC1q analyte; mean of 2 analyses
human C1q [12] = target: T1, human C1q; assay: SPR Biacore T200, heterogeneous ligand model, ka1; hC1q immobilised (ligand), IgG analyte
human C1q [13] = target: T1, human C1q; assay: competition ELISA, plate-coated human C1q; competitor biotinylated mouse M1 (0.02 µg/ml); IC50 normalised to chimeric M1
Protocol: as §2, §3

human C1q [14] = target: T1, human C1q; assay: SPR Biacore T200, heterogeneous ligand model, kd1; hC1q immobilised (ligand), IgG analyte
human C1q [15] = target: T1, human C1q; assay: SPR Biacore T200, heterogeneous ligand model, KD1; hC1q immobilised (ligand), IgG analyte
human C1q [16] = target: T1, human C1q; assay: SPR Biacore T200, 1:1 model, single cycle kinetics; hC1q immobilised (ligand), IgG analyte
human C1q [17] = target: T1, human C1q; assay: SPR Biacore T200, 1:1 model; IgG immobilised (ligand), hC1q analyte; analysis 1
human C1q [18] = target: T1, human C1q; assay: cell-based or functional assay
rat C1q = rat C1q (rat, UniProt P31720 23-245; P31721 26-253; P31722 29-245); assay: cell-based or functional assay
human C1q [19] = target: T1, human C1q; assay: SPR Biacore T200, 1:1 model; IgG immobilised (ligand), hC1q analyte; analysis 2
human C1q [20] = target: T1, human C1q; assay: SPR Biacore T200, heterogeneous ligand model, kd2; hC1q immobilised (ligand), IgG analyte

T2 sequence (P98086 23-245 limits assumed, chain 1 of 3): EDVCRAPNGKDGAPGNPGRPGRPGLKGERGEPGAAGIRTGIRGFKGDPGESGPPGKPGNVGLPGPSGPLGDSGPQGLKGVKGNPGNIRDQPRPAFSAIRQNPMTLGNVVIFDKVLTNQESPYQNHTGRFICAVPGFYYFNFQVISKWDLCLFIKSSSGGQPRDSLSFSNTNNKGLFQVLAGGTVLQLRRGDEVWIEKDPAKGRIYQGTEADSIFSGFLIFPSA
T2 sequence (P14106 26-253 limits assumed, chain 2 of 3): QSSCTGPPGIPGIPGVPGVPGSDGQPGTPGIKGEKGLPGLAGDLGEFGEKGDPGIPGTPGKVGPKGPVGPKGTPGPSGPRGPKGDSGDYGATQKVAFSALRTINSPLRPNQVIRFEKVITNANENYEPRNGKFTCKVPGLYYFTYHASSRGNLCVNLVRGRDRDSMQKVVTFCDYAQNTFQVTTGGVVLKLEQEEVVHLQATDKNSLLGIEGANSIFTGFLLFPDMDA
T2 sequence (Q02105 30-246 limits assumed, chain 3 of 3): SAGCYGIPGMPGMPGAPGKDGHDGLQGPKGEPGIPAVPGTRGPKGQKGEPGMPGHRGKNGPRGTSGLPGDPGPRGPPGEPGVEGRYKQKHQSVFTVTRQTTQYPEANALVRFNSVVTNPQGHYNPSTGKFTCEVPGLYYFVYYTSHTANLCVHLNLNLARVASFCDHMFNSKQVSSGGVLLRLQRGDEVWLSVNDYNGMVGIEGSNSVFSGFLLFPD
T1 sequence (P02745 23-245 limits assumed, chain 1 of 3): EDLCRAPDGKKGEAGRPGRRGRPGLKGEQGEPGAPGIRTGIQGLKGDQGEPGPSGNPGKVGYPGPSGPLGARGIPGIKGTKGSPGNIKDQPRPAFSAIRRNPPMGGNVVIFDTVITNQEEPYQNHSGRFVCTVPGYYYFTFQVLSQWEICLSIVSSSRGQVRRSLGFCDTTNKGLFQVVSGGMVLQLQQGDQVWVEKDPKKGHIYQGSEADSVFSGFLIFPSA
T1 sequence (P02746 28-253 limits assumed, chain 2 of 3): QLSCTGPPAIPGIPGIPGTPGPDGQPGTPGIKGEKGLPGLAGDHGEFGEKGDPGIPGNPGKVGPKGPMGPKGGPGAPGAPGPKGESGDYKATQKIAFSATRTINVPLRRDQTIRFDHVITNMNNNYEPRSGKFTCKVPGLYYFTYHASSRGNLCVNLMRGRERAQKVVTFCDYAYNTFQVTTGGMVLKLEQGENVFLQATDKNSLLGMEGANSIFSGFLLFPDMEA
T1 sequence (P02747 29-245 limits assumed, chain 3 of 3): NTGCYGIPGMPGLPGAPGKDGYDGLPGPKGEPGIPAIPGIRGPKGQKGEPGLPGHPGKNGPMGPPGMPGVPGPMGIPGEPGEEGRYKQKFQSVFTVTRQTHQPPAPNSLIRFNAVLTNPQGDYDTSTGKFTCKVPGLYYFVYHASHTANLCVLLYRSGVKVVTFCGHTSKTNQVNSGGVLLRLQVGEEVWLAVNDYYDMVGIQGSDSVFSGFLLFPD
Chain of rat C1q (P31720 23-245 limits assumed, chain 1 of 3): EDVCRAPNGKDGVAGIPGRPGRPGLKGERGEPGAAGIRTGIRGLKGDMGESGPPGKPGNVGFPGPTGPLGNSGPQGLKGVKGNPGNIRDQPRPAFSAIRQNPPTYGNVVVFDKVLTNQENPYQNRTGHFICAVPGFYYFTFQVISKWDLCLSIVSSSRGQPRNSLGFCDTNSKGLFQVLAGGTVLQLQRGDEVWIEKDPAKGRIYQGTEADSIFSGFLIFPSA
Chain of rat C1q (P31721 26-253 limits assumed, chain 2 of 3): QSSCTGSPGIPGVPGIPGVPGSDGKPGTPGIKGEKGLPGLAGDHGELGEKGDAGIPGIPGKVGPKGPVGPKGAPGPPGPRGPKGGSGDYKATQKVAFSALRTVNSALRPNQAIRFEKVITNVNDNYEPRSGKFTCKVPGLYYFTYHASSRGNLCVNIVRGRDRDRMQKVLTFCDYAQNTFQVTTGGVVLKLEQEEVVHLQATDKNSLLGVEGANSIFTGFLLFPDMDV
Chain of rat C1q (P31722 29-245 limits assumed, chain 3 of 3): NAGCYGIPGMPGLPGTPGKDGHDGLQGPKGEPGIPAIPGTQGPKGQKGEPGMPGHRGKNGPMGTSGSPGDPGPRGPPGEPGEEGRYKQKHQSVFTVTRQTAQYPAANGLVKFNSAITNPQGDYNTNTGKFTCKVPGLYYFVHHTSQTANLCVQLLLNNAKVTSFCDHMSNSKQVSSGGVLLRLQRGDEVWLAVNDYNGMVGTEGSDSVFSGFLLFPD

IC50 (read off the curve) (human C1q [1]): ~0.3 µg/mL
IC50 (read off the curve) (human C1q [2]): ~0.3 µg/mL
Relative IC50 (human C1q [3]): 1 ratio to chimeric M1
IC50 (read off the curve) (mouse C1q [4]): ~3 µg/mL
IC50 (read off the curve) (human C1q [5]): ~0.3 µg/mL
IC50 (read off the curve) (human C1q [6]): ~0.3 µg/mL
Relative IC50 (mouse C1q [7]): 1 ratio to chimeric M1
B1: chimeric M1 antibody (antibody, human IgG4)
heavy: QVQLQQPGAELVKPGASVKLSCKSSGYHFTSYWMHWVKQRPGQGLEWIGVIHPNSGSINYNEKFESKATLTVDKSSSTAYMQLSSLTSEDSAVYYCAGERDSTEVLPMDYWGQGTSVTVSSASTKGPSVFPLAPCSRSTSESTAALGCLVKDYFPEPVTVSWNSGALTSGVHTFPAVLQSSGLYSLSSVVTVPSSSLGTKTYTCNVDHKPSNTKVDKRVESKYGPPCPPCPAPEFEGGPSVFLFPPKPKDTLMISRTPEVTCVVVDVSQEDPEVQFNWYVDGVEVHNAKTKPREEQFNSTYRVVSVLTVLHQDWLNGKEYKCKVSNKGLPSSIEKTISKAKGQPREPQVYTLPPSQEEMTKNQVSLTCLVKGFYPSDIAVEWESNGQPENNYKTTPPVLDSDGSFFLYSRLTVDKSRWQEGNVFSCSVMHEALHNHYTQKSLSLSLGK
light: DVQITQSPSYLAASPGETITINCRASKSINKYLAWYQEKPGKTNKLLIYSGSTLQSGIPSRFSGSGSGTDFTLTISSLEPEDFAMYYCQQHNEYPLTFGAGTKLELK
notes: Murine M1 V regions with human IgG4 (S241P L248E) and human kappa constant regions, expressed in NS0; also called 3E2; not shown: human kappa light chain constant region

kon (human C1q [8]): 16000 M⁻¹ s⁻¹
Relative IC50 (mouse C1q [9]): 1.5 ratio to chimeric M1
Kd (human C1q [10]): 7.3 nM
Kd (human C1q [11]): 5.8 pM
koff (human C1q [11]): 5.8e-06 s⁻¹
kon (human C1q [11]): 1e+06 M⁻¹ s⁻¹
kon (human C1q [12]): 200000 M⁻¹ s⁻¹
Relative IC50 (human C1q [13]): 0.63 ratio to chimeric M1
koff (human C1q [14]): 4.6e-06 s⁻¹
Kd (human C1q [15]): 22.7 nM
IC50 (read off the curve) (mouse C1q [4]): ~5 µg/mL
Kd (human C1q [16]): 7.9 pM
koff (human C1q [16]): 3.1e-07 s⁻¹
kon (human C1q [16]): 39000 M⁻¹ s⁻¹
Kd (human C1q [17]): 6.7 pM
koff (human C1q [17]): 6.4e-06 s⁻¹
kon (human C1q [17]): 960000 M⁻¹ s⁻¹
Kd (human C1q [19]): 4.9 pM
koff (human C1q [19]): 5.1e-06 s⁻¹
kon (human C1q [19]): 1.1e+06 M⁻¹ s⁻¹
koff (human C1q [20]): 1.1e-07 s⁻¹
IC50 (read off the curve) (human C1q [6]): ~0.2 µg/mL
B2: humanized anti-C1q antibody VH3/Vκ3 (full-length IgG) (antibody)
heavy: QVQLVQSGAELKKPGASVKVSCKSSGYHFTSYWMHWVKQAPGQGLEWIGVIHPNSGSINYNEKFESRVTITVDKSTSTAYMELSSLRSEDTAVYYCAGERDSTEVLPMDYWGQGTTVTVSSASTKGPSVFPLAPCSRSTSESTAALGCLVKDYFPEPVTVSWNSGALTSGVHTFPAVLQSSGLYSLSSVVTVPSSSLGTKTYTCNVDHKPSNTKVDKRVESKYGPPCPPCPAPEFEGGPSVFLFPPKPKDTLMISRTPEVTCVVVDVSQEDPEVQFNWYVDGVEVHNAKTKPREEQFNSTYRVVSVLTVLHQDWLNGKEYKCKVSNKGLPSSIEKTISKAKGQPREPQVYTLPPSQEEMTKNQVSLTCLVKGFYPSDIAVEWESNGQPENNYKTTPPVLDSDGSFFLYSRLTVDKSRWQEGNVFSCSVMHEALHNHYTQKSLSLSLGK
light: DVQITQSPSSLSASLGERATINCRASKSINKYLAWYQQKPGKAPKLLIYSGSTLQSGIPARFSGSGSGTDFTLTISSLEPEDFAMYYCQQHNEYPLTFGQGTKLEIK
notes: Full-length human IgG4 (S241P L248E) / human kappa, expressed in NS0; also called IgG VH3/Vκ3; IgG-VH3/Vκ3; not shown: human kappa light chain constant region
amount of antibody required to inhibit 50% of human CH50 hemolysis (human C1q [18]): ~60 ng
amount of antibody required to inhibit approximately 50% to approximately 80% of rat CH50 hemolysis (rat C1q): ~60 ng
